Experimental findings from patent US20250076311A1 (Chugai, published 2025) are described below.

For one test, the target named is T1, Mouse latent myostatin (mouse, UniProt O08689 26-267; O08689 268-376, limits assumed).
T1 sequence 1: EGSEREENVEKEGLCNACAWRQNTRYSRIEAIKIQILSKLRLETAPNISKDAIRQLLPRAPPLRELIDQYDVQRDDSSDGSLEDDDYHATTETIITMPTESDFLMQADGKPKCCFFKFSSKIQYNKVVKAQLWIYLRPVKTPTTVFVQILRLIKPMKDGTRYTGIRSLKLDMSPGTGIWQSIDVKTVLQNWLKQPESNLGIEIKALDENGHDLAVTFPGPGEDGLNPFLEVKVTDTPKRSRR
T1 sequence 2: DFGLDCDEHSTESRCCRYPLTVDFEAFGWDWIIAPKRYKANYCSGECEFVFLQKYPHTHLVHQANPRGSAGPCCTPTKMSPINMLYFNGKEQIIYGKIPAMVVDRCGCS
The experiment in a line: SPR (Biacore T200), 37C, pH 7.4, antibody captured on ProA/G. As for the experimental part:
ProA/G (Pierce) was immobilized onto all flow cells of a CM4 chip using an amine coupling kit (GE Healthcare). All antibodies and analytes were prepared in ACES pH7.4 or pH5.8 buffer containing 20 mM ACES, 150 mM NaCl, 1.2 mM CaCl₂, 0.05% TWEEN® 20, 0.005% NaN3. […] The sensor surface was regenerated each cycle with 10 mM Glycine HCl pH1.5. Binding affinity was determined by processing and fitting the data to a 1:1 binding model using BIACORE® T200 Evaluation software, version 2.0 (GE Healthcare).
In general terms: Surface plasmon resonance follows binding to a sensor surface in real time, without labels.

Test [1] addresses T2, cynomolgus monkey FcγRIIIaS extracellular domain, His-tagged (cynomolgus monkey, UniProt A3RFZ7 21-206 (rhesus entry)).
T2 construct: also called cyno FcgRIIIaS; cynoFcγRIIIaS; not shown: His-tag added to the C-terminus
The experiment in a line: SPR (BIACORE), antibody captured on chip, soluble FcgR as analyte, 25 C.

The target in test [2] is T3, human FcγRIIIaV extracellular domain, His-tagged (human, UniProt P08637 17-208).
T3 construct: also called human FcgRIIIaV; not shown: His-tag added to the C-terminus
T3 sequence (P08637 17-208 F176V): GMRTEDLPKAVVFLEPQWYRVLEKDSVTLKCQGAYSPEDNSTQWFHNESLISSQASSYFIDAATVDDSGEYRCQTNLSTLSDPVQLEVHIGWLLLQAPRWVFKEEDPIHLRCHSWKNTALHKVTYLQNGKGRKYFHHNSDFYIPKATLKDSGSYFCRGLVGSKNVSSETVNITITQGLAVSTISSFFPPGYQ
The description is as above.

Test [3] deals with T4, human FcγRIIaH extracellular domain, His-tagged (human, UniProt P12318 34-217).
T4 construct: also called human FcgRIIaH; FcγRIIa (type H); not shown: His-tag added to the C-terminus
T4 sequence: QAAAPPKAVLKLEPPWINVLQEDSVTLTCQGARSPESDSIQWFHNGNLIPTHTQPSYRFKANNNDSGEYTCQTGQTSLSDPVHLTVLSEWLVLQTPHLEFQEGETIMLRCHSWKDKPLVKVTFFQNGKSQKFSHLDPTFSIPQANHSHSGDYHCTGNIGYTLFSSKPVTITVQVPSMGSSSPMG
Put plainly: SPR (BIACORE); KD of SG1 divided by KD of the variant. As for the experimental part:
(§1) The kinetic analysis of interactions between these antibodies and FcγR was carried out using BIACORE® T200 or BIACORE® 4000 (GE Healthcare). HBS-EP+ (GE Healthcare) was used as the running buffer, and the measurement temperature was set to 25° C. […] After the measurement, the antibody captured on the chip was washed off by allowing reaction with 10 mM glycine-HCl, pH1.5 and 25 mM NaOH so that the chip was regenerated and used repeatedly. The sensorgrams obtained as measurement results were analyzed by the 1:1 Langmuir binding model using the BIACORE® Evaluation Software to calculate the binding rate constant ka (L/mol/s) and dissociation rate constant kd (1/s), and the dissociation constant KD (mol/L) was calculated from these values. […] Regarding such interactions, KD values were calculated using the following 1:1 binding model described in BIACORE® T100 Software Handbook BR1006-48 Edition AE.

Test [4] has as its target T5, human FcγRIIaR extracellular domain, His-tagged (human, UniProt P12318 34-217).
T5 construct: also called human FcgRIIaR; FcγRIIa (type R); not shown: His-tag added to the C-terminus
T5 chain: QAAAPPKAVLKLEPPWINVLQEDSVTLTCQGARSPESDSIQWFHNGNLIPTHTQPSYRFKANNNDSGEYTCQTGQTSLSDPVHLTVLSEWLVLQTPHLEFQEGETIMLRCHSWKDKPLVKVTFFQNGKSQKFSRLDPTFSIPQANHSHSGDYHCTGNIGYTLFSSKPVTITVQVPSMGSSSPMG
Described as above. As for the experimental part:
as §1

Test [5] has as its target T6, cynomolgus monkey FcγRIIa3 extracellular domain, His-tagged (cynomolgus monkey).
T6 construct: also called cyno FcgRIIa3; cynoFcγRIIa3; not shown: His-tag added to the C-terminus
T6 chain: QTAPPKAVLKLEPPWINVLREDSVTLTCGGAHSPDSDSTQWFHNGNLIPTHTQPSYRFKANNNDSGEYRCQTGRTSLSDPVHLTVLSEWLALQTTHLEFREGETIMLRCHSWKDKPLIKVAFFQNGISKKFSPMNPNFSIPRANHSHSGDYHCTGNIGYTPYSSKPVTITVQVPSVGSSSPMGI
The test is described as above. As for the experimental part:
as §1

In test [6] the target is T7, cynomolgus monkey FcγRIIa1 extracellular domain, His-tagged (cynomolgus monkey).
T7 construct: also called cyno FcgRIIa1; cynoFcγRIIa1; not shown: His-tag added to the C-terminus
T7 chain: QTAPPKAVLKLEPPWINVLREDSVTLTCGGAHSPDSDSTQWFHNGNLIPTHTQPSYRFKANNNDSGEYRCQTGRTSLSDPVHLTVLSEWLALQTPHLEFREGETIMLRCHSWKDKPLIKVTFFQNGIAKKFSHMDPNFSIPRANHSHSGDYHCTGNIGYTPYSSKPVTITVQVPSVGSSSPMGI
The experiment in a line: SPR (BIACORE), antibody captured on chip, soluble FcgR as analyte, 25 C.

The target in test [7] is T6, cynomolgus monkey FcγRIIa3 …. Described as above.
Test [8] deals with T2, cynomolgus monkey FcγRIIIaS …. Put plainly: SPR (BIACORE); KD of SG1 divided by KD of the variant. As for the experimental part:
as §1

The target of test [9] is T8, human FcγRIIb extracellular domain, His-tagged (human, UniProt P31994 43-217).
T8 construct: also called human FcgRIIb; not shown: His-tag added to the C-terminus
T8 sequence: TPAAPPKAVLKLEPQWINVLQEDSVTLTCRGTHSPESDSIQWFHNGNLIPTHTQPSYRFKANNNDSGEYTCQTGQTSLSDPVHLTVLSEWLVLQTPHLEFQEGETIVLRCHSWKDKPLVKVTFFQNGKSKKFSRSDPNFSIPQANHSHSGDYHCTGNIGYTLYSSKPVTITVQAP
Described as above. As for the experimental part:
as §1

Test [10] addresses T3, human FcγRIIIaV extracellular domain, …. Described as above. As for the experimental part: as §1

T2 sequence (A3RFZ7 21-206): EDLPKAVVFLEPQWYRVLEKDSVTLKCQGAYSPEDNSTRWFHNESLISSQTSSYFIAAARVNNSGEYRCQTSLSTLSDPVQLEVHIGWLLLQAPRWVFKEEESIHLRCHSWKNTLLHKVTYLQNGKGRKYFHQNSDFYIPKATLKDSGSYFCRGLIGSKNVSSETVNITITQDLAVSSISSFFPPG

B1: MS1032LO10-SG1 (antibody, human IgG1, kappa, V domains shown)
VH: QVTLKESGPVLVKPTETLTLTCTVSGIDLSHTDISWVRQAPGKGLEWVGIISYAGKTYYASWAKKRLTISKDTSKNQVVLTMTNMDPVDTATYYCARGVPAYSHGGDLWGQGTLVTVSS
VL: DIVMTQSPATLSLSPGERATLSCTSSQSVYHANWLSWFQQKPGQPPKLLIYWASTLAYGVPSRFSGSGSGTDFTLTISSLQPEDAATYYCAGGYGGGRYAFGQGTKVEIKR
As to B1, the dissociation constant (Kd) (usually the free concentration of one partner at which half of the binding sites on the other are occupied at equilibrium, for simple one-to-one binding) with Mouse latent myostatin came to 0.000314 µM.

B2: M103205H795-MY260/M103202L889-SK1 (antibody)
heavy: QVTLKESGPVLVKPTETLTLTCTVSGIDLSHDDISWVRQAPGKGLEWVGIISYAGSTYYASWAKGRLTISKDTSKNQVVLTMTNMDPVDTATYYCARGVPAYSHGGDLWGQGTLVTVSSASTKGPSVFPLAPSSKSTSGGTAALGCLVKDYFPEPVTVSWNSGALTSGVHTFPAVLQSSGLYSLSSVVTVPSSSLGTQTYICNVNHKPSNTKVDKKVEPKSCDKTHTCPPCPAPELLMGPSVFLFPPKPKDTLMISRTPEVTCVVVDVSDEDPEVKFNWYVDGVEVHNAKTKPREEQYNSTYRVVSVLTVLHQDWLNGKEYKCKVSNKALPKPIEKTISKAKGQPREPQVYTLPPSREEMTKNQVSLTCLVKGFYPSDIAVEWESNGQPENNYKTTPPVLDSDGSFFLYSKLTVDKSRWQQGNVFSCSVMHEALHNHYTQKSLSLSP
light: DIVMTQSPATLSLSPGERATLSCTSSQSVYHANWLSWFQQKPGQPPKLLIYWASTLAYGVPSRFSGSGSGTDFTLTISSLQPEDAATYYCAGGYGGGRYAFGQGTKVEIKRTVAAPSVFIFPPSDEQLKSGTASVVCLLNNFYPREAKVQWKVDNALQSGNSQESVTEQDSKDSTYSLSSTLTLSKADYEKHKVYACEVTHQGLSSPVTKSFNRGEC
In the case of B2, the Kd in test [1] is 0.85 µM; in [2], 30 µM. Besides, the “KD fold (SG1 = 1)” value in test [3] was 0.7 fold; in [4] it was 0.5 fold; in test [5], 1.7 fold.

B3: M103205H795-MY262/M103202L889-SK1 (antibody, human IgG1, kappa, name in EU numbering)
heavy: QVTLKESGPVLVKPTETLTLTCTVSGIDLSHDDISWVRQAPGKGLEWVGIISYAGSTYYASWAKGRLTISKDTSKNQVVLTMTNMDPVDTATYYCARGVPAYSHGGDLWGQGTLVTVSSASTKGPSVFPLAPSSKSTSGGTAALGCLVKDYFPEPVTVSWNSGALTSGVHTFPAVLQSSGLYSLSSVVTVPSSSLGTQTYICNVNHKPSNTKVDKKVEPKSCDKTHTCPPCPAPELLVGPSVFLFPPKPKDTLMISRTPEVTCVVVDVSDEDPEVKFNWYVDGVEVHNAKTKPREEQYNSTYRVVSVLTVLHQDWLNGKEYKCKVSNKALPKPIEKTISKAKGQPREPQVYTLPPSREEMTKNQVSLTCLVKGFYPSDIAVEWESNGQPENNYKTTPPVLDSDGSFFLYSKLTVDKSRWQQGNVFSCSVMHEALHNHYTQKSLSLSP
light: DIVMTQSPATLSLSPGERATLSCTSSQSVYHANWLSWFQQKPGQPPKLLIYWASTLAYGVPSRFSGSGSGTDFTLTISSLQPEDAATYYCAGGYGGGRYAFGQGTKVEIKRTVAAPSVFIFPPSDEQLKSGTASVVCLLNNFYPREAKVQWKVDNALQSGNSQESVTEQDSKDSTYSLSSTLTLSKADYEKHKVYACEVTHQGLSSPVTKSFNRGEC
notes: Asn at EU 236 of MY201 replaced with Val
B3: the values for the dissociation constant (Kd) in test [6] and in [7] were 1.5 µM and 80 µM, respectively. For the same molecule, the “KD fold (SG1 = 1)” value came out at 0.35 fold in test [8] and 0.3 fold in [9].

B4: M103205H795-MY263/M103202L889-SK1 (antibody, human IgG1, kappa, name in EU numbering)
heavy: QVTLKESGPVLVKPTETLTLTCTVSGIDLSHDDISWVRQAPGKGLEWVGIISYAGSTYYASWAKGRLTISKDTSKNQVVLTMTNMDPVDTATYYCARGVPAYSHGGDLWGQGTLVTVSSASTKGPSVFPLAPSSKSTSGGTAALGCLVKDYFPEPVTVSWNSGALTSGVHTFPAVLQSSGLYSLSSVVTVPSSSLGTQTYICNVNHKPSNTKVDKKVEPKSCDKTHTCPPCPAPELLQGPSVFLFPPKPKDTLMISRTPEVTCVVVDVSDEDPEVKFNWYVDGVEVHNAKTKPREEQYNSTYRVVSVLTVLHQDWLNGKEYKCKVSNKALPKPIEKTISKAKGQPREPQVYTLPPSREEMTKNQVSLTCLVKGFYPSDIAVEWESNGQPENNYKTTPPVLDSDGSFFLYSKLTVDKSRWQQGNVFSCSVMHEALHNHYTQKSLSLSP
light: DIVMTQSPATLSLSPGERATLSCTSSQSVYHANWLSWFQQKPGQPPKLLIYWASTLAYGVPSRFSGSGSGTDFTLTISSLQPEDAATYYCAGGYGGGRYAFGQGTKVEIKRTVAAPSVFIFPPSDEQLKSGTASVVCLLNNFYPREAKVQWKVDNALQSGNSQESVTEQDSKDSTYSLSSTLTLSKADYEKHKVYACEVTHQGLSSPVTKSFNRGEC
notes: Asn at EU 236 of MY201 replaced with Gln
B4 came in with a dissociation constant (Kd) in test [7] of 73 µM. In addition, the “KD fold (SG1 = 1)” value in test [10] was 0.39 fold.
